According to PMC8815974, “Mechanistic Insight Into Cadmium- and Zinc-Induced Inactivation of the Candida albicans Pif1 Helicase”:

T1: CaPif1 (Candida albicans, UniProt Q59RQ0 1-906)
T1 sequence: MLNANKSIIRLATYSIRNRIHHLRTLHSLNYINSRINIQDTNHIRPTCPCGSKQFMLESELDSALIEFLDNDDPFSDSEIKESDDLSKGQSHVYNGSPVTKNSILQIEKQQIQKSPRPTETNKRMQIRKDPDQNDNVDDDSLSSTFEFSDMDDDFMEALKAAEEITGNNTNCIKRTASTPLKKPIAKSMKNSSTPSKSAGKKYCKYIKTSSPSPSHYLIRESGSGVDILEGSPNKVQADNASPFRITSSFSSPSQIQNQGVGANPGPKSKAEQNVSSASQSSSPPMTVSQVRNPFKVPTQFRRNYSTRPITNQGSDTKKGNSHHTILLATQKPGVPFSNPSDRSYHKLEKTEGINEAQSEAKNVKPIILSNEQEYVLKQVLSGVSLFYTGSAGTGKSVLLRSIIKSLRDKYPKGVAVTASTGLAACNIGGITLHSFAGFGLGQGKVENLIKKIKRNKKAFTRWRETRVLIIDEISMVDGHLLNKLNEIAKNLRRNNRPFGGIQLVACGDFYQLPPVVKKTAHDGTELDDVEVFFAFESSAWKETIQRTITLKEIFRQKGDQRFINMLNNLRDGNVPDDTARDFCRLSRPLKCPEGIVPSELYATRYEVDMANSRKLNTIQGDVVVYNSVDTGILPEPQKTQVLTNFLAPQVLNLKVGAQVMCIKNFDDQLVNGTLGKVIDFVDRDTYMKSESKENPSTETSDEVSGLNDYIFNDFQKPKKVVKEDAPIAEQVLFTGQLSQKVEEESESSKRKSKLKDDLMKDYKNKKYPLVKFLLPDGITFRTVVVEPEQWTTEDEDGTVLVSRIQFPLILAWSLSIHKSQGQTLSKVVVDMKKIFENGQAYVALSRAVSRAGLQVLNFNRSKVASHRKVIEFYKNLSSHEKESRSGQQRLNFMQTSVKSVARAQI

B1: S40 (ssDNA)
DNA: CCATGCAGCTGTCAGTCCATTGTCATGCTAGGCCTACTGC
B2: OhS22D21 (dsDNA)
DNA 1: CTGTAGGAATGTGAAATAAAAACGATGTTTTATTTACATTGTA
DNA 2: TACAATGTAAATAAAACATCG

Biological target: T1, CaPif1
Assay: EMSA; 1.5 mM Mg2+, no ATP; CaPif1 0-3000 nM; 25 mM Tris-HCl pH 7.5, 50 mM NaCl, 1.5 mM MgCl2, 1 mM DTT, 25 C; EMSA 10 nM DNA, 5 min, 6% native PAGE; FP 5 nM DNA, 10 min
Conditions: protein: recombinant, tags: none (N-terminal His-SUMO tag removed)

Binder	binding result (label: 3'-FAM, single strand, 40 nt)	binding result (label: 3'-FAM on strand 1, 5' overhang 22 nt, 21 bp duplex)
B1	binds	
B2		binds
